{"source": "the NTF2 design screens of Basanta et al. (2020)"}
{"test": "protease stability score; higher = more stable; yeast display proteolysis, trypsin and chymotrypsin;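 further: relative to predicted unfolded state with 0 unfolded-like and 1 meaning tenfold more protease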"}
{"sequence": "HEDEESMEHSIRRLIQAIETGDFHELTELADPHVKLTIGDKEYIGREQWEKTLRDLGIDHFDVKRSKLIGDYARVDGKVNVNGQFRDTTVIMKKVDGKWLIRSWHVH", "protease stability score": 1.91}
{"sequence": "DDEHEHYRRQTKLVEDLFLTGDWDKIFRLLDPHVRMEINGRQHIGRERVTTEFKQHIEDLGIDHVEIKRSHVQGEKMHLDGVIEFNGRKQSSELIIVIIDGVWHSIVVQLH", "protease stability score": 1.09}
{"sequence": "SEWEEELERLLREIIHSILTGDEKRLRELMDPNAKFHILVNGVEIDLMGMEHHSHWFREWLKHARINTVHIRHYDVVGEKARSDTELDMEIDGRRIRTRTELILVVIDGRVHSLEIRIK", "protease stability score": 2.02}
{"sequence": "SELEELTEEAVKHILHIWETGDEEMSHDLVDPHVRVHVNGQKYHGRENAVEHISKLKGAKWHLRRFEVIDGKIHVDGQFHFNGRHHEVRVVIRKINGRWLIHEIQID", "protease stability score": 1.77}
{"sequence": "HDRKREIDHVLKLWINHFKTGDEDFHERNMDPHVRLHQGNYETHGREEVKKFLKRLFDEFGADHIHIRDYRIDVQGDKITIVMEVEIRVGNYRIDIEFILYVAKVDGKWHVHHYEIRNH", "protease stability score": 1.06}
{"sequence": "DEHEMEIRDFIDKFLQSLRTGDEEKVHKLIDPHVRTQIDGQEFHGREEFLRFLRTHLERLGVDHIDVDLQQIEIVGEKINIHGTLTIEIDGRYLRHTFHLRVEKVNGKWIIESIRMT", "protease stability score": 2.15}
{"sequence": "SEEEEFWKHIAKVMLDLVTTGNEDLFMKMADPNTKSEFNGRTVVGRERIAEILKKFKNITIIIHHIDIQGEKVRIHGRVLIGDKEIEDDWELVVVDGKIQRLHFEHV", "protease stability score": 1.29}
{"sequence": "DEEYESMKIAVERLVQAHKTGDEDFLRELADPHVRVEIGDKRMHGWDRFDEWFKFVHHHLRIKDVDMKEFHIQGNKMHVRLELHGHYNGRDLILERHVILLKVNGRWILHVVQLG", "protease stability score": 2.3}
{"sequence": "SEEEEEARDILKMLFTALDTGNEEYFLNLIDPNVRISVGNYTIVGREQWTEHMRRVKNMQIDDISIKDIKFQGELLRIHGHLVGRFDGQHSHFHVDIIFRKVNGQWHQKEIIIK", "protease stability score": 1.99}
{"sequence": "DEQHEEAERAMEHMNRIEHTGDEDDLDRLMDPRTKIEVGDKELHGRHLWRVFLREARIHDSKIRDIRVIGDKVTFHTEVRITINGVEVRVHVIMIIEKVDGKWLVHRVIIR", "protease stability score": 1.35}
{"sequence": "DEKHELNEKALSEFLKIVHTGDERLVREMMDPHVRVHINGRDHHGMDDAVELMKFIKNMTVILTDKKIQGDKLEVHGIWIYNGVREETEIISEKVDGRWVIREVRHD", "protease stability score": 1.07}
{"sequence": "DELKDIMREVAEIIIRLEHTGDWRVFRKMADPNVRIDIGDFHIIGREEWRHWIEELRERIKNLKVEIRITHIESQGDKVHSDTRLIIRFDGVTEERTQHLHFVIVDGRVTSVRYENR", "protease stability score": 0.009}
{"sequence": "DDEERIWRELLEIWIKLMETGDEDTTRKNADPHAKHILVIGDFTLVLHGWDLTVKFLKELSERMGINHIHVHRVEAINGQVHIDSRLRVGDKDVHTHIRIKIVDGVLKETNLHIK", "protease stability score": 1.62}
{"sequence": "DETHKDAERALEIEIRDFVTGDFKSMQRLADPNVKIEVGDKHWHGREEFEKLVKEVIDQFPNMRLDVRVTHWELQGEKLIMRTEVNEHFDGVTFKHETHIIIRKINGRWFLTSVHIQ", "protease stability score": 1.36}
{"sequence": "DEEERMAHEVAEILLRSLHTGDWRRDMDLLDPHVRFDFNGVHLHGREEWLRHLHEFWRKFGVEFFDLHEDNISIQGDKAIMDGQIEFNGRRTKQKLEITVIDGRVKEVRVEIH", "protease stability score": 0.59}
{"sequence": "DDIDHFLLEIVLRFIEDNLTGNEDNLRKMADPDTRIFIHIGEKEFRIHGREAWTEWILTIVDHMRMRLNIRRLEWQGDKARITQEQDIHVGNKTHTTEVELHIVIIDGKMHTVHVELR", "protease stability score": 1.36}
{"sequence": "SEEEEDMRKAHEFVDKLIHTGDEDETRRYADPNVLVTINGRRWVGRDDYVEVLREILHRADHVHLHEKSIRIVDGVVQINSNLFIKQGDKEIHLDIRFHIRKVNGRWDMKRMEIR", "protease stability score": 1.64}
{"sequence": "DEETRHAREMMRIIAESLHTGDEDRLLEMIDPNVRVHVDGQDYHGREQWFQYLHEELRHLRIKHLTVTHHKVYDGRVELHLRVHGEVNGRHTEKTFIVIILKVDGRWKIESLRIE", "protease stability score": 2.15}
{"sequence": "SEEEELEERLTRYWLHAFWTGDWEHLKEMADPDARHRLHFENHTESVHGREYLVLIYVRIIRNLGFKHLEIDHVRVVDGVFRIHGILEVNGRKQRVHIIVVIVNGRLRELVLIFG", "protease stability score": 1.41}
{"sequence": "DEDLSRNFHQFIEALKQNDTDRMKELIDPNARMRYGDKQLHGRENILNYWKKLNDQARVDLDLKSVRNDENHIRYNYKMRVHVNGRPVEDTATAEIRATNGRIVDIYIDFDPEKLRQIES", "protease stability score": 2.16}
{"sequence": "TEEVHRYKNMLELFDHAVRTGNEDLLKILFDPNTRIEVGEYHNHGWEAIEFFLKRVDHEHIEDSKLTSHHVQGNYLESHGHMHATLHFNGKELRIHTHVRWHLDKFNGRWVIHSIIIN", "protease stability score": 1.33}
{"sequence": "DEDMKIASHVFHLIMHILHTGDEDSLKELADPDYRWLFNGVSNVGREESVRRLEEIRLEMKDTKTRSAKIYDGRIELHSHVRGNLNVNGVEIEHSVRSRLFVSKVDGKWLVEHIEIG", "protease stability score": -0.045}
{"sequence": "DDEKRFTHEAIKTSEEVMKTGDERLMRELMDPNVRSEIDGRDVHGMDIITEWLSHIRIEDIKLRRITVIDGVITIRGEVYFEQGDKIVTFDVTIIYEKIDGRWLLRSLHVK", "protease stability score": 1.53}
{"sequence": "DEIDELMEMMARILIRLWQTGDEETWSRLADPDVRVTIGEFHTHGMERALLIIQEIRRHWRIHHIHIHDMRVFENRSRVNGKVDGEIDGQKDVRETRIEVVLIDGRLQEVRVKTK", "protease stability score": 0.91}
{"sequence": "SEDDHMAELASRLVHERVKTGDPRVVDELLDPNVRLEYGDKEWHGREEFRKFLRHLRLHDVHIRSYEIQGDKVYIDGRVDGEVNGKRSLLETHIYAKKIDGRWLETSVVMK", "protease stability score": 0.561}
{"sequence": "SQEEQDTEEFLRHLHEALRTGDEKTLRTLIDPHVRLFINGVHLHGREELVRWLKEFVDRLGIDVSTLHIDDMRIIGNFIELDTKIRWKIGDKTEEVETRFIIVKIDGRWYVRQVEMG", "protease stability score": 2.6}
{"sequence": "REDEDAVREWALKFLESSLTGDEHFLKNLMDPHARLVIGDKHFHGREEVVRTWREFLTKFKNVRHDLHDINIQGDKVDVVENLVFDGVRTRTRITMRKVDGRWVITDIVIE", "protease stability score": 2.08}
{"sequence": "SEDHEVARDIMEILLHLYLTGNEEDLKQFFDPHVRLVIGDKNIHGREEVVNHLKRILDRIPNVRVKHFTLHDIRIIGDKIYLNTEIHVKINGRDHRSETRWVILKVDGVWHLHSVEVG", "protease stability score": 2.05}
{"sequence": "SEEEEIAHRFRKTVVHALLTGDEDRLRELVDPNYRILIGDKELHGWKSMSEFTHEWRIDHVEIERESVFDGVAHHDIRVDTTVNGKRDTRIVRIIIQKVNGKWVIHSMEIH", "protease stability score": 0.53}
{"sequence": "DEDEDEIKRIVEIIEHALRTGDEDLMRRLFDPNARLDINGREVHGRESFIEILHHWLHELRFKSLRLHQVHIVDGKAHVDTRVTYHINGVEIHIETERNMLKVDGRWFITHEHHR", "protease stability score": 0.025}
{"sequence": "TEDVRHADEMIERVIESLTTGDEESYKRLLDPDVRVLIGDKRIHGMEAVLEWFRRIDHVQIHDVRVREVEIVNGRADVRMEFDLTHRINGVEHRFKFESEMLLVKIDGQWRLHSDKRI", "protease stability score": 1.57}
{"sequence": "SEDEELEKVFLRILKEILTTGDEDTLRFLLDPNARMHVGDKELHGWSNVYEQINQLRIKDYELRDFKRVGDKVDFDGRNHGHFNGRDVEHRARLIIQKIDGRWFIHANIIE", "protease stability score": 0.626}
{"sequence": "SEDEELMRRAEDFIIETWETGDWELLHHLADPRVQLDINGRTEHGRENMNEALRRWLDDLGFDHHRVRKKHVIDGRVILDFEIFQGDKEVHLHLHNVVVNGRMKSVHFKLQDN", "protease stability score": -0.052}
{"sequence": "DEHEDNLQHLIHVMTELFITGDWKELRHLIDPNALLHINGKDVHGWHLALEHIVRWREEMGVKHSHVERIHLQGDKTHLHMREHFNGRTVELEIRIIFVNGRLESHEMRIRNN", "protease stability score": 0.822}
{"sequence": "SEDEERARRFFEELIHVLHTGDEDSLIKMADPSVRLDFNGVEAVGREEFERMFKEIWREIRLEDLTSHHIDVFNGRIRIESKSHIEVNGVQITRDELVIVTKINGKWHLHSREVK", "protease stability score": 1.56}
{"sequence": "SEVEEDTKRVLELLRESWKTGDEHSIKEMLDPNVKILVGDKEFHGMEDWHRIYKRFDYISIRHVRLKDSRHINGVVYLIIHIESEYRIGDKTTEKRYDASIINEKVDGRWIIRSIEIH", "protease stability score": 1.91}
{"sequence": "TEDKEKDDEVAHLFLNAVRTGDEELFQDLVDPETRLNVNGQEIHGRENVFRHMRETWDKMGVDHVELKDRRHINGVLILHFEIRVGDKTIHVEYIIEKIDGRWILTKVHIR", "protease stability score": 0.569}
{"sequence": "DEHEREMHRLVDLLIKLLETGDEEISLRLADPHTRHDINGVHDHGRDKWEKSWEEHKKHLGWRIHYRIRDFRTQGDKARMEIQVDLHIGDKNIHLETHLLLISIDGVIKEIRIIIL", "protease stability score": 1.39}
{"sequence": "DEVERWAKEIAELFLKLYLTGNWKNLERLLDPHMQFIIDGVRIHGREEMREFIRHEREFFKGMRHEITDSHVDVQGEKVEVHLHIEVIVNGQKHVRHINLHIEKIDGQWLIKLVIIHHE", "protease stability score": 1.26}
{"sequence": "DEEERLLEKSIKEEIERNVTGDFRRIHELFDPNMRLDINGQEYMGRDLMVERWQKFKNVRSHIELRHYEIINGKAHVDGHLILYIDGVELRTRTRIIYVKINGRWSIQEIDIT", "protease stability score": 1.38}
{"sequence": "DEEEDDVRRLIERFQHNFDTGNWHMLEHLVDPHARINFDGVESHGMELIVHVNEHMRIHDTHIRDIRIDVVGDKVFVENIVRVESEINGQHRDVEMRISMVITKVNGRWLIKEIRIKIH", "protease stability score": 0.974}
{"sequence": "SDDERMLHLLIKILIRAIQTGDEDTLLRQVDPHVRIDIDGRDIVGREDLIEFAKHWRFELREVNIRHMEIYGEYIHAEVEVRGKIIIGDKEVETTVDTRHIILKINGRWFFHSISVK", "protease stability score": 1.26}
{"sequence": "DEELHHQERLLREFLHAEFTGDEDKLRHLADPRTRSDLEFENVEIVLHGMDEHVKWWEELGFKIDEMRISRIDVVGNFIILDTRVRGHINGQETHFEHHIIINTINGKIHSIRVHTK", "protease stability score": 0.735}
{"sequence": "DEEEKSLREMMRQFVEHLETGNFEEIEKMADPNARVRIDGRDFVGREEWHKMFIHLHKHLRLEDSHIHHIDFQGNKIHIHGHIHVVVDGKREHRHFHVIIRKVNGRWTIEEMYIE", "protease stability score": 1.06}
{"sequence": "DEEDELLERTLKEVAHAWRTGDWRRIEEMFDPNARVDINGVNFVGREEMHRILHEMRIEIEDFKLRRKRIVDGRLELDGEMLGIFRQGDKERRHRSRVFIVILKIDGRWVFEEVRFH", "protease stability score": 2.43}
{"sequence": "DELEEEVLKALDEWLRSLATGDFDTLTHLMDPNAKTHIGDKHYHGRELLEIWIKRVDHVHRLHFRLRRYRVVGNKVELDGELEIDGEINGRHTNHSEDIRIVLHKIDGRWVVESMIIR", "protease stability score": 2.53}
{"sequence": "HDLEETVRDMIHLLMTFVETGDEDSVHRLIDPHVRVEVGDKLTHGRQWVHLLIKRADVLEIRIEDMRIVGDKALIVSKYHIRIDGVFIVYNIDIYAEKIDGRWVTTEIKVD", "protease stability score": 1.71}
{"sequence": "SEEERDAEENIRLYEELWRTGDFDIFKHLADPNVRLHINGRDVHGRENVSRLISEWRDEDIILRHFTVIDGRIEVHSEFHGQVDGQRRNTRIHIHLRKINGQWRLTEVKYE", "protease stability score": 1.12}
{"sequence": "DEIEHEVERVVREWMRAYITGDEDTLQHLLDPHVLSVIDGVNIHGMENVTEYLRRHLEKIKNVQIEDMRIHRLDIQGNKLDLDTRLHITFNGVPEVLETRLILTKIDGKWWMHQVIIN", "protease stability score": 2.42}
{"sequence": "DERERIAEEILRRIAKLMETGDENEMEHLMDPNVRLVFNGVRLHGMEDWEREMRRFDHIKIHTNEIQHIRLQGEKVDNDVRVDLLYHQGDKSWKIDTRTHYHFQKVNGKWIVREIIIE", "protease stability score": 1.39}
